These results are taken from article PMC10816394, “Radiosynthesis and Bioevaluation of ^99mTc-Labeled Isocyanide Ubiquicidin 29-41 Derivatives as Potential Agents for Bacterial Infection Imaging” (International Journal of Molecular Sciences, 2024).

Series [1] is classed as physicochemical. Particulars: pH 7.4. Here is the method:
The lipophilicities of the ^99mTc-labeled complexes were evaluated by the distribution coefficient. The method for determining the distribution coefficient was as follows: 0.1 mL of the radiolabeled complex (3.7 MBq) was mixed with 0.9 mL of phosphate buffer (0.025 mol/L, pH 7.4) and 1 mL of n-octanol in a 5 mL centrifuge tube. The mixture was shaken on a vortex mixer at room temperature for 3 min and centrifuged at 5000 r/min for 5 min. Aliquots of 0.1 mL of both n-octanol and PBS were collected, and the radioactivity was determined with a γ-counter. The distribution coefficient was calculated as follows: Log D = lg[(counts per minute in n-octanol/counts per minute in PBS)]. Each group of measurements was carried out five times in parallel. The final results are expressed as the log D ± SD.

Series [2] deals with S. aureus-infected mice. The experiment in a line: SPECT imaging in bacterial infection mice. The format is in vivo. Particulars: S. aureus in left forelimb muscle, 30~37 MBq tail vein, imaging at 30, 120 and 240 min p.i., n = 2. Here is the method: The bacterial-infected mouse model was generated as follows: 100 μL of bacterial suspension containing approximately 1 × 10^8 CFU/mL (for S. aureus) was injected into the left forelimb muscle of the same mice. […] One hundred microliters of [^99mTc]Tc-CN5UBI 29-41 (30~37 MBq) was injected intravenously into each bacterially infected mouse via the tail vein (n = 2). […] The SPECT/CT images were reconstructed with HiSPECT 3.2.0 software (Bioscan, Washington, DC, USA) and processed with VivoQuant 2.5 software (Invicro, Needham, MA, USA).

In series [3] the test system is S. aureus-infected mice. Further details: species or system female Kunming mice. Particulars: mouse, in vivo. Here is the method:
Bacterial infection mouse models were constructed as follows: S. aureus (ATCC 25923) was cultured in a liquid medium at 37 °C for approximately 24 h, washed with PBS (pH 7.4) and diluted to obtain a suspension of 1 × 10^8 CFU/mL. […] The mice were sacrificed with isoflurane anesthesia at 120 min postinjection. […] To evaluate the metabolic properties of [^99mTc]Tc-CN5UBI 29-41, biodistribution studies were carried out in mice infected with S. aureus at 30, 120 and 240 min.

In series [4] the test system is turpentine-oil-inflamed mice. The experiment in a line: Biodistribution in mice with turpentine-induced abscesses (sterile inflammation). Particulars: tail vein injection, 120 min p.i., mean ± SD, n = 5. Here is the method:
The sterile inflammation mouse model was constructed as follows: turpentine oil (0.1 mL) was injected into the left thigh muscle of female Kunming mice (18–22 g). […] Each mouse was injected with 0.1 mL of [^99mTc]Tc-CN5UBI 29-41 (3.7 MBq/mL) via the tail vein. The mice were sacrificed under anesthesia with 1.5% isoflurane at 120 min postinjection. The organs of interest (the inflamed muscle in the left thigh, normal muscle in the right thigh, blood, heart, liver, lung, kidney, spleen, stomach, bone, small intestine and large intestine) were collected, weighed and measured by a γ-counter. The results are expressed as the percentage of the injected dose per gram of tissue ± standard deviation (%ID/g ± SD). After the mice were sacrificed, the tissues containing the thyroid around the trachea in the neck were collected and measured. The results are expressed as the percentage of the injected dose ± standard deviation (%ID ± SD).

For series [5] the following is noted: in vivo; cited from earlier work.
Series [6] relates to bacterial infection sites. Also on record: method as in PMID 14960656, PMID 10774881, PMID 12900285, PMID 15093821, PMID 11337578. Particulars: literature values; cited from earlier work.

No end group written: not given here.

With “[^99mTc]Tc-CN5UBI 29-41: ^99mTc complex of ligand CN5UBI 29-41 with the [^99mTc]Tc(I)^+ core (TGRAKRRMQYNRR; also: CN5 chelator, position not given here, 99mTc(I) complex; UniProt P62861 103-115, looked up, fragment)”, in series [1], the “Log D ± SD, [^99mTc][Tc(Ⅰ)]^+ Core” value is reported as −2.66 ± 0.02. The “SPECT image finding at infection site” value in series [2] was “accumulated at the site of bacterial infection”. Also, the “Abscess/Muscle ratio (target-to-nontarget ratio)” value in series [3] is 4.15 ± 0.49. Moreover, in series [4], the Abscess uptake turned out to be 0.73 ± 0.05 %ID/g, the Abscess/Blood ratio was 0.59 ± 0.06, the “Abscess/Muscle ratio (target-to-nontarget ratio)” value was 2.52 ± 0.22 and the Blood uptake is recorded as 1.28 ± 0.12 %ID/g. Moreover, in series [4], the Bone uptake is reported as 0.82 ± 0.19 %ID/g, the Gallbladder uptake came to 0.15 ± 0.04 %ID, the Heart uptake was found to be 0.61 ± 0.03 %ID/g and the Kidney uptake was 13.05 ± 1.24 %ID/g. Besides, in series [4], the “Large Intestines uptake” value amounted to 0.62 ± 0.18 %ID/g.

For “[^99mTc]Tc-UBI 29-41: directly ^99mTc-labeled UBI 29-41, reported bacterial infection tracer; structure speculated (TGRAKRRMQYNRR; also: directly 99mTc-labeled, no chelator, structure speculative; UniProt P62861 103-115, looked up, fragment)”, the “target-to-nontarget ratio at sterile inflammation sites” value in series [5] is reported as 1.1–1.2. Besides, in series [6], the “target-to-nontarget ratio at bacterial infection sites” value was 1.7–4.7.
